# Experimental data reported in the DeepSol protein solubility set.
# Experiment: soluble on expression in E. coli; label from the status in PepcDB or PDB records
row,Sequence,soluble on expression in E. coli
1,MAHHHHHHMITGGSEKLLTKDSVAQYIRRVSSGLLYESAVLPIQFLIRGFRDIVPCEALASLGEQEMMSLLCGCRANDKKPLWTLAEIKSILVAEHGYQTDSPQMTMLQNILANRLTPAEQRSFLLFCTGCPRLPVGGVGALGAITVVKRSDFTMFHGSSGRNSGGSDGIGGADRKEQNPKQPGEWNSLPNETDWPLPSVNTCFRYLKLPPYPTEDLMYKKLRLSIMQGGETFQLS,not soluble
2,MSSLCLQRLQEERKKWRKDHPFGFYAKPVKKADGSMDLQKWEAGIPGKEGTNWAGGVYPITVEYPNEYPSKPPKVKFPAGFYHPNVYPSGTICLSILNEDQDWRPAITLKQIVLGVQDLLDSPNPNSPAQEPAWRSFSRNKAEYDKKVLLQAKQYSK,soluble
3,MDDFATSSRVFEDDNDAFDFNPLEDFAFDDIDDDDDIVSGILDDGPYSIPNADNKPKFKSVSFDNAETPEERIETLFNQMPTQDDLLLGILDASQTPIFTDDLEQKVEELKQHHHSVYSPMSYCRLLERAGAIEQTNNEGLPLKEVEVEPDKVVVEGVEYWKVAAAPDVYWTATPAGLAHFQAYQPMELLRQMVQNEPQYEEIFRMVLSATAADGGESVKNIDDLVSDDPILQSPRRYAMYFIDKLERAGGIQWRGAWVAIQAGKDFLAELNA,not soluble
4,MHTLLLLAALSNQITFTTTQQGDIYTVIPQVTLNEPCVCQVQILSVRDGVGGQSHTQQKQTLSLPANQPIELSRLSVNISSEDSVKIIVTVSDGQSLHLSQQWPPSAQ,not soluble
5,MSTMSTPAAEQRKLVEQLMGRDFSFRHNRYSHQKRDLGLHDPKICKSYLVGECPYDLFQGTKQSLGKCPQMHLTKHKIQYEREVKQGKTFPEFEREYLAILSRFVNECNGQISVALQNLKHTAEERMKIQQVTEELDVLDVRIGLMGQEIDSLIRADEVSMGMLQSVKLQELISKRKEVAKRVRNITENVGQSAQQKLQVCEVCGAYLSRLDTDRRLADHFLGKIHLGYVKMREDYDRLMKNNRTTNASKTATTLPGRRFV,not soluble
6,MGSSHHHHHHSSGLVPRGSHMRPHGDTAKKPIIGILMQKCRNKVMKNYGRYYIAASYVKYLESAGARVVPVRLDLTEKDYEILFKSINGILFPGGSVDLRRSDYAKVAKIFYNLSIQSFDDGDYFPVWGTCLGFEELSLLISGECLLTATDTVDVAMPLNFTGGQLHSRMFQNFPTELLLSLAVEPLTANFHKWSLSVKNFTMNEKLKKFFNVLTTNTDGKIEFISTMEGYKYPVYGVQWHPEKAPYEWKNLDGISHAPNAVKTAFYLAEFFVNEARKNNHHFKSESEEEKALIYQFSPIYTGNISSFQQCYIFD,soluble
7,MGSDKIHHHHHHMSYDEAFKTLLISSNAKLNLELNHLVIKQDENIAKLFLKDINIIVLESLQISISSALFNAFAKYKIILLTCDETHSINGVFTPFLGHFQSAKIAKEQMNVSAQKKAILWQKIIKNKILNQAFILKKHNKIEQSNELINLAKKVSLNDSKNIEAVAAALYFKTLFGTSFSRDELCFENSALNYGYAIIRACIIRAVCISGLLPWLGIKHDNIYNSFALCDDLIEVFRASVDDCVLKLKGESEFLSKDDKRALIGNLQSKINFDGQNYPLNRAINHYVANFKNALLYEDELKIVKFDD,not soluble
8,MATSRMVQARVPEEIQNVASQVIQASGLTVSDVVRVLMTRIAQDKAIPSVLFQPNAETIAAFAEVDEGNLKKFHSVDELFDDLYADD,not soluble
9,MKIPIPSIGHVALLASAILFASSANAASDEDGIIIYNAQHESFAKSWAEGFTKDTGIKVTLRNGKDSELGNQLIQEGSSSPADVFLTENSPAMVLVDNAKLFAPLDAATQAQVAKEYRPEDGRWTGIAARSTVFVYNPAKISEAELPKSLMDLAKPEWKGRWAASPSGADFQAIVSAMLALKGEQATLEWLKAMKTNATAYKGNSTVMKAVNAGQIDGGVIYHYYPFVDQAKTGENSGNIKLHYFKNKDPGAFVSISGAGVLASSKHPQQAQKFVQWVTGKAGQDFLRESNSAFEYAVGVNAASNPKLVPLKDLDPPKVEVSKLNSKKVVELMTEAGLL,not soluble
10,MGSDKIHHHHHHMTARLESNAPVQYAFRLDDREVAVNPLIGRPLRLEYLGSIFCTHCGRKTKKSFSQGYCYPCFTRLAQCDSCIVSPEKCHYEQGTCREPEWGERFCMTDHVVYLANSSGVKVGITRASQIPTRWIDQGARQALPILRVATRQQSGLVEDLLRSQVADRTNWRAMLKGEAEPVDLAAVREQLFDQCADGLRELQQRFGLQAIQPVIDLDPLEIAYPVEAYPSKVASLDLEKTPIVEGTLRGIKGQYLILDTGVINIRKYTAYQIAVHH,not soluble
11,MEGSQQTITSKQLVRMLKDASRGSKGKGSGEMKFCFLIGAGASISSGIPSGAKLAWDWLQQIKEDCDGEDFEDWKIEIKMPDQHIEERVGEFYPEIYEKRFGHAPETGYDYIRGLMEGREPSLGYLILANIMVREKHNVVITTNFDNLLEDAIRTYTKEKPFIAGHEALADYVPKRSDRPIILKLHRDLFLQPFSDQLNTDILQAAWESILGKFLSDYHLIVLGYGGNDGSLMNYLLKLKNRKPIYWCVRNTDKATSKSLWNTLSPKAKRLLKNDGYLVPIDDFDRFMYDCYAALGYKFLEGIEKIEKPKSIHEILKPNYARIESIQTQLRQLSQTEEELSKESFQSIKSFLPDSWMWILKANQEKDIDKKDKIYREGIAKYPQDANLLGDYADFLCDICHD,not soluble
12,GPGSMTDFYSLIPSAPKGRFDGIERAHTAEDVKRLRGSVEIKYSLAEMGANRLWKLIHEEDFVNALGALSGNQAMQMVRAGLKAIYLSGWQVAADANTASAMYPDQSLYPANAGPELAKRINRTLQRADQIETAEGKGLSVDTWFAPIVADAEAGFGDPLDAFEIMKAYIEAGAAGVHFEDQLASEKKCGHLGGKVLIPTAAHIRNLNAARLAADVMGTPTLIVARTDAEAAKLLTSDIDERDQPFVDYEAGRTAEGFYQVKNGIEPCIARAIAYAPYCDLIWMETSKPDLAQARRFAEAVHKAHPGKLLAYNCSPSFNWKKNLDDATIAKFQRELGAMGYKFQFITLAGFHQLNYGMFELARGYKDRQMAAYSELQQAEFAAEADGYTATKHQREVGTGYFDAVSLAITGGQSSTTAMKESTETAQFKPAAE,soluble
13,AARRKIAKDLGKQVTQAMQTLSMQGGRFEAALTGGAPSAHGSEQVEFLVAGHAGSTPRPLAKVASGGELSRISLALSVIASRAARVPTLIFDEVDSGVGGAVAEAVGKLLRELGQRHQVLCVTHLPQVAACAHAQYRVSKVESGGSTRSRIAELDAEARVEEVARMLGGIKITATTRDHAREMLGGHTAPAA,not soluble
14,MLSFLQSFFKSLGYEDYFKPIAPSSPRFFTKYCNETQKKITIVIDSNNIIRPFVFDESNEREPLFVAHLGCSECMRWNRMYGENIAENNEPETDSEDETDYESETSDSELGQDSPNPNLSEALNNCIENFDQLVDEVVRHKDFHERSQLLRVLEECLGNMNSFLQNENLTVDDISTGACALLNETAEKLKQMFSSSGISGRKESSEGTNKDLIKFGELEIRGDEEEDDDDESYVEGEEEDSSDEDLDDEDQEGESSIEPRLSETFKKSEARESLSSKEAPVKDLVIYQKFRDEHEDLEESENEPRMSDEAEKLVEDKIIEESDEDSFDIIGRDEELDDDSNGKEEEELELDVTQEDSEDDEQFFSL,not soluble
15,MGSDKIHHHHHHFDEETAFQSPTLVYVNTVASLYNNMFKIMGNDRHVYDLNTFSSDEAMLPCRIGDWEDGGLWQNIFLHRWGTMNDLTKNSWDFLYEQIGKCNQSVDKLQAFAEEQPDVEYFKVYLEEVRAVRAFFYYELLDLFARVPLVTSSTTPMSEVKQSERSVVFNFVRSELEEALPYLSDNRSNQKGEYYGRITKPVAYMILAKLALNAEVYADDNWTDGNRPAGKNIKFTVDGKEMNAWEATIAYVDKLEALGYKLQGNFSENFAVANETSVENIFTVPMDPVAYPDAKDYNLVRTRHYDHATAYGQSGWNGSCATVKAMNVFKFGTADEDPRCKLTYFTGEVTGPDGKTIYTEWDGQKVPLKYEPNAPKVYMDASDGLLVKTAGARMAKYEFDQNAQDGGNLHGNDCVIFRFADALLMKAEAKIRLGQNGDDEVNQVRNRVGAKPLQNVTLDTLLDERMLELAWEGVRRQDLIRFGKFTEATVDRYVGVKHFASSLDYQEDKTGYTTVFSIYADILSLNPNLTQNPGY,not soluble
